Data from EP2450379B1 (Crucell Holland B.V., dated 2015).

Columns and labels:
[1] = biological target: T1, soluble recombinant HA (sHA) of H5N1TV (influenza A virus A/Vietnam/1194/2004 …, UniProt Q6J8F6 17-528); assay: immunoblot (data not shown)
[2] = biological target: T1, soluble recombinant HA (sHA) of H5N1TV; assay: immunoblot, reducing SDS-PAGE

B1: CR6301 (antibody, V domains shown)
VH: EVQLVESGGGLVQPGGSLRLSCAASGFTFSIYAMSWVRQAPGKGLEWVSAISSSGDSTYYADSVKGRFTISRDNARNTLYLQMNSLRAEDTAVYYCARAYGYTFDPWGQGTLVTVSS
VL: not shown
notes: human IgG1
- binding result [1]: binds

B2: CR6141 (antibody, V domains shown)
VH: EVQLVQSGAEVKKPGASVKVSCKASGYTFTGYYVYWVRQAPGQGLEWMGWISAYNGNTNYAQKFQGRVTITADKSTSTAYMELSSLRSEDTAVYYCARSRSLDVWGQGTTVTVSS
VL: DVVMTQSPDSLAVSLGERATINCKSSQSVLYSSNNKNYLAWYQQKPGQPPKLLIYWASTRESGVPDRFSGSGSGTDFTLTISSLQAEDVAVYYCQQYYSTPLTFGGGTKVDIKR
notes: human IgG1
- binding result [1]: binds

B3: CR6307 (antibody, V domains shown)
VH: QVQLVQSGGGLVKPGGSLRLSCAASGFTFSSYSMNWVRQAPGKGLEWVSSISSSSSYIYYVDSVKGRFTISRDNAKNSLYLQMNSLRAEDTAVYYCARGGGSYGAYEGFDYWGQGTLVTVSS
VL: EIVLTQSPGTLSLSPGERATLSCRASQRVSSYLAWYQQKPGQAPRLLIYGASTRAAGIPDRFSGSGSGTDFTLTISRLEPEDSAVYYCQQYGRTPLTFGGGTKVEIKR
notes: human IgG1
- binding result [2]: binds

B4: CR6323 (antibody, V domains shown)
VH: EVQLVESGAEVKKPGSSVKVSCKASGGTFSSYGISWVRQAPGQGLEWMGDIIGMFGSTNYAQNFQGRLTITADESTSTAYMELSSLRSEDTAVYYCARSSGYYPAYLPHWGQGTLVTVSS
VL: not shown
notes: human IgG1
- binding result [2]: binds

B5: CR6296 (antibody, V domains shown)
VH: EVQLVETGAEVKKPGASVKVSCKASGYTFTSYYMHWVRQAPGQGLEWMGWINPNSGGTNYAQKFQGRVTMTRDTSISTAYMELSRLRSDDTAVYYCAREGKWGPQAAFDIWGQGTMVTVSS
VL: EIVMTQSPGTLSLSPGERATLSCRASQSVSSSYLAWYQQKPGQAPRLLIYDASSRATDIPDRFSGSGSGTDFTLTISRLEPEDFAVYYCQQYGSSLWTFGQGTKVEIKR
notes: human IgG1
- binding result [1]: binds
